{"source": "paper PMC8307404", "about": "“Crystal Structure-Guided Design of Bisubstrate Inhibitors and Photoluminescent Probes for Protein Kinases of the PIM Family” (Molecules, 2021)", "test_in_all_cases": "Kinase profiling (radiometric filter-binding)", "format_in_all_cases": "biochemical", "key": {"HIPK2": {"target": "HIPK2 (Homo sapiens, UniProt Q9H2X6)", "sequence (Q9H2X6 whole entry)": "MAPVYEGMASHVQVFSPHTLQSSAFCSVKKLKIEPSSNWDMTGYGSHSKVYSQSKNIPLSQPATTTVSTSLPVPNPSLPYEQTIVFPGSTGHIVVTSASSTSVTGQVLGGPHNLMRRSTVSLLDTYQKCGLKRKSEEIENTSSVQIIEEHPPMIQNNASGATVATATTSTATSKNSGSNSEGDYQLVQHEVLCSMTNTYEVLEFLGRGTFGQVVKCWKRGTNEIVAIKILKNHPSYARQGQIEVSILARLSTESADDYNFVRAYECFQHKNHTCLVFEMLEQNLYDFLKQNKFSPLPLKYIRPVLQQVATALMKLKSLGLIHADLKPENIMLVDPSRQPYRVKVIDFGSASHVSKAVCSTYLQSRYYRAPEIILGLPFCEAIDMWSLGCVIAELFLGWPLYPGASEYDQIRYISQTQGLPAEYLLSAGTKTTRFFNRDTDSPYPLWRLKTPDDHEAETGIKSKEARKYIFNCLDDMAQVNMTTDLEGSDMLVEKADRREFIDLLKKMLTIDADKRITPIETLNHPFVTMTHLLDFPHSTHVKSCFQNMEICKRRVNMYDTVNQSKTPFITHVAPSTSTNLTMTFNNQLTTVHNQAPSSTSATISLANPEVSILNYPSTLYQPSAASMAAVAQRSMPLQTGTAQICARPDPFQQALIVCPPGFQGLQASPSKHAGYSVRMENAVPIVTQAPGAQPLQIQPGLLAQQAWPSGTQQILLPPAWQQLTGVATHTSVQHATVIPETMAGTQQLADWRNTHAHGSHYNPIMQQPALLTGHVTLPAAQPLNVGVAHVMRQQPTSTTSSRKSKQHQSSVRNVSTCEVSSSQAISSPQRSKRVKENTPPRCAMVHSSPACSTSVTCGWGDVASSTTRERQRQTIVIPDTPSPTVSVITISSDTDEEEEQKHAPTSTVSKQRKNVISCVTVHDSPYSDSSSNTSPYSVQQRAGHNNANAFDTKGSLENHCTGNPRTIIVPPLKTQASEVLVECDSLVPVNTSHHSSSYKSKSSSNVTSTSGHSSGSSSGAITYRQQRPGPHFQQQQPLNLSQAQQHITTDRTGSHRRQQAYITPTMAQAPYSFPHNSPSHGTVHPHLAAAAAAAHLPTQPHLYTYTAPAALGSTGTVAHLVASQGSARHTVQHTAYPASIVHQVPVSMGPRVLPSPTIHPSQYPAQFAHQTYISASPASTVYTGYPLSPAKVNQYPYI", "settings": "HIPK2, 1 µM inhibitor; read-out: Residual activity, %", "outline": "(§1)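 Activity remaining (% of control without inhibitor) at 1 µM final compound; human kinases, ATP ≤ KM, radiometric filter binding.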"}, "LKB1": {"target": "T1, LKB1 (Homo sapiens, UniProt Q15831)", "T1 sequence (Q15831 1-433)": "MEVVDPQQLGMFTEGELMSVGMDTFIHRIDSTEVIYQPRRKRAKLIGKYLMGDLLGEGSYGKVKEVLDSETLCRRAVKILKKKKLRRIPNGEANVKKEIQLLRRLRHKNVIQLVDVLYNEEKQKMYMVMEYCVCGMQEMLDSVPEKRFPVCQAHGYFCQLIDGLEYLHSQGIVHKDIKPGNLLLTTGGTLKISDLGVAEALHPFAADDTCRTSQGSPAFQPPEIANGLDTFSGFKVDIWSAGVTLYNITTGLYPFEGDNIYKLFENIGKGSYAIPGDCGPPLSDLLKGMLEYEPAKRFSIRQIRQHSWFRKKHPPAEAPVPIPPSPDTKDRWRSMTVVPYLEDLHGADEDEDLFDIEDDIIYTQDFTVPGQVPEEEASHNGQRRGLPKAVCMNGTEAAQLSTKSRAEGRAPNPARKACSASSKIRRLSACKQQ", "T1 sequence (Q7RTN6 1-431 partner)": "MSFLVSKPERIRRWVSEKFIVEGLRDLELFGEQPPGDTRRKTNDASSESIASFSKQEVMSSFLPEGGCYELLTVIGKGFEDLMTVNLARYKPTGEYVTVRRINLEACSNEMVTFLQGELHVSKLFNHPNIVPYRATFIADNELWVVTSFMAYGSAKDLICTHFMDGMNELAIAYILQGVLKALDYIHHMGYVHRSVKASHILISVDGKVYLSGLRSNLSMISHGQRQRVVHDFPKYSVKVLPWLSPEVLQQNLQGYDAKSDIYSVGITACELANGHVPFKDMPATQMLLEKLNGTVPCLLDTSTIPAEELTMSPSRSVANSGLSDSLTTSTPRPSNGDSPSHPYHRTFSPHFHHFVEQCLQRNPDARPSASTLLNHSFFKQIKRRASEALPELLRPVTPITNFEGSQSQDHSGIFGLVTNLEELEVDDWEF", "T1 sequence (Q9Y376 1-341 partner)": "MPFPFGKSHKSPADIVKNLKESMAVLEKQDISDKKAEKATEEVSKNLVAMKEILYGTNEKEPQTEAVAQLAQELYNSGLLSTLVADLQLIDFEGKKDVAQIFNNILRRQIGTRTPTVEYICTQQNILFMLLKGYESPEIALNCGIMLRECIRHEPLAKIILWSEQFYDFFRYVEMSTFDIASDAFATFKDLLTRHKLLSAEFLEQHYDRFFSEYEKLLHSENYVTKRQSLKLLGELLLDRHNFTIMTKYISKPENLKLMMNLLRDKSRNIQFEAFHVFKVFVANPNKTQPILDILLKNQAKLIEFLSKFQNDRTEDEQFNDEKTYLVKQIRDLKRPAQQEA", "settings": "LKB1, 1 µM inhibitor; read-out: Residual activity, %", "outline": "as §1"}, "Lck": {"target": "Lck (Homo sapiens, UniProt P06239)", "sequence (P06239 whole entry)": "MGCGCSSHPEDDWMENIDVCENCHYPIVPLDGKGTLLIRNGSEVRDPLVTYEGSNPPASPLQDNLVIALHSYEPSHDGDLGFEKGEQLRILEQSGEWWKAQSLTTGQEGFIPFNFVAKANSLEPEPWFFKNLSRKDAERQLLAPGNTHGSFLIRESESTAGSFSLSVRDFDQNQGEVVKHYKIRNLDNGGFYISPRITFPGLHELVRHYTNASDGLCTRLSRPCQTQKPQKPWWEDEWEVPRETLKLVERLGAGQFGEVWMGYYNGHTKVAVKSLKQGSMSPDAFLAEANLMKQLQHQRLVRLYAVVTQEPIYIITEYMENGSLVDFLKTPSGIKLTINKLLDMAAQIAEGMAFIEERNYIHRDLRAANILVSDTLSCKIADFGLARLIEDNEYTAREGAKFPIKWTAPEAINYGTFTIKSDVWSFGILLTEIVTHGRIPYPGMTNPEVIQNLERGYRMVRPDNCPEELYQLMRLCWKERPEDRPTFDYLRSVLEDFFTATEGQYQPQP", "settings": "1 µM inhibitor, read-out: Residual activity, %", "outline": "as §1"}, "MNK1": {"target": "MNK1 (Homo sapiens, UniProt Q9BUB5)", "sequence (Q9BUB5 whole entry)": "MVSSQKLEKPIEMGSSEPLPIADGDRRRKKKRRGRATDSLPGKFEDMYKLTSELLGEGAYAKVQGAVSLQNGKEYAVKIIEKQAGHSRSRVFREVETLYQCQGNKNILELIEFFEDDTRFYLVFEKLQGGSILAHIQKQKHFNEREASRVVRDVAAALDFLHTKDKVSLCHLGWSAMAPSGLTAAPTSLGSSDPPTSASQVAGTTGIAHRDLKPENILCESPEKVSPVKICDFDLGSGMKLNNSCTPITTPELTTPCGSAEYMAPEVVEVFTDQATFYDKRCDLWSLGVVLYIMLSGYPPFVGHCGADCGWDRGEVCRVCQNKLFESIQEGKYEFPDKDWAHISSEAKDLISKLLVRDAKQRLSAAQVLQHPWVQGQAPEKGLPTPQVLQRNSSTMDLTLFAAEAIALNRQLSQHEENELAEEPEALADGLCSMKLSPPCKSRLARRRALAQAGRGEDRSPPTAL", "settings": "MNK1, 1 µM inhibitor; read-out: Residual activity, %", "outline": "as §1"}, "OSR1": {"target": "OSR1 (Homo sapiens, UniProt O95747)", "sequence (O95747 whole entry)": "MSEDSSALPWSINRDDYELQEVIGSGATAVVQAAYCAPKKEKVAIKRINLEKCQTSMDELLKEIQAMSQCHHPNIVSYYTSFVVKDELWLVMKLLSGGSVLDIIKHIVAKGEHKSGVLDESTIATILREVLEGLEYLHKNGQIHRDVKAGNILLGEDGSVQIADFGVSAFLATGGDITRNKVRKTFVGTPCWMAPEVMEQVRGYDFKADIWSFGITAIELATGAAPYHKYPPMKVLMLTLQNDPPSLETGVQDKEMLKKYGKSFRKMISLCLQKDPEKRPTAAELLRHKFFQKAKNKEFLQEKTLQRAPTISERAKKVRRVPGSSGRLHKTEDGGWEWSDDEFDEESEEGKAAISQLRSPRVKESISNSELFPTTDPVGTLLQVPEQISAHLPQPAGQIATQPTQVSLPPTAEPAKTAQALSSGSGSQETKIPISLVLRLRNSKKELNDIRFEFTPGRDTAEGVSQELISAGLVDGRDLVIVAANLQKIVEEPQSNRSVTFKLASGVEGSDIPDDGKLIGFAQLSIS", "settings": "OSR1, 1 µM inhibitor; read-out: Residual activity, %", "outline": "as §1"}, "PAK6": {"target": "PAK6 (Homo sapiens, UniProt Q9NQU5)", "sequence (Q9NQU5 whole entry)": "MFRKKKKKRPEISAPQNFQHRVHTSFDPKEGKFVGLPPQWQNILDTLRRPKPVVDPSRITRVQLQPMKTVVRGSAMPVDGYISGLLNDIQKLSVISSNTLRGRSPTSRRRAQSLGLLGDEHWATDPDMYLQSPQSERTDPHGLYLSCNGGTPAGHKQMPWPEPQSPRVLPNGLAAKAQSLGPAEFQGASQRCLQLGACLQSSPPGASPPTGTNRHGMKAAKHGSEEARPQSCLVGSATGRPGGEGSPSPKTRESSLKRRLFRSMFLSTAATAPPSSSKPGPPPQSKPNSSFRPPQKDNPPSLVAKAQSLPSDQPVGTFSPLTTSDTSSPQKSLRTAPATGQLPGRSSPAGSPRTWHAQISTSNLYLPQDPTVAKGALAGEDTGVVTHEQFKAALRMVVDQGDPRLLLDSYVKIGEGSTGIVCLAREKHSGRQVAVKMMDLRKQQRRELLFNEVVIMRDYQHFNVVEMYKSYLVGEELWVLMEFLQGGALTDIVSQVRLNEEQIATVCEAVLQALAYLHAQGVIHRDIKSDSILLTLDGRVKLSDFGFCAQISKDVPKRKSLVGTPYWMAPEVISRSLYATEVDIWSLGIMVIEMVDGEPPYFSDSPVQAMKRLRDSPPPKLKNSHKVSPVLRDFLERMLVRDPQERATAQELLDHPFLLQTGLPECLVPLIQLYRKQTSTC", "settings": "PAK6, 1 µM inhibitor; read-out: Residual activity, %", "outline": "as §1"}, "PKC": {"target": "T2, PKC (Homo sapiens, UniProt Q05513)", "T2 sequence (Q05513 1-592)": "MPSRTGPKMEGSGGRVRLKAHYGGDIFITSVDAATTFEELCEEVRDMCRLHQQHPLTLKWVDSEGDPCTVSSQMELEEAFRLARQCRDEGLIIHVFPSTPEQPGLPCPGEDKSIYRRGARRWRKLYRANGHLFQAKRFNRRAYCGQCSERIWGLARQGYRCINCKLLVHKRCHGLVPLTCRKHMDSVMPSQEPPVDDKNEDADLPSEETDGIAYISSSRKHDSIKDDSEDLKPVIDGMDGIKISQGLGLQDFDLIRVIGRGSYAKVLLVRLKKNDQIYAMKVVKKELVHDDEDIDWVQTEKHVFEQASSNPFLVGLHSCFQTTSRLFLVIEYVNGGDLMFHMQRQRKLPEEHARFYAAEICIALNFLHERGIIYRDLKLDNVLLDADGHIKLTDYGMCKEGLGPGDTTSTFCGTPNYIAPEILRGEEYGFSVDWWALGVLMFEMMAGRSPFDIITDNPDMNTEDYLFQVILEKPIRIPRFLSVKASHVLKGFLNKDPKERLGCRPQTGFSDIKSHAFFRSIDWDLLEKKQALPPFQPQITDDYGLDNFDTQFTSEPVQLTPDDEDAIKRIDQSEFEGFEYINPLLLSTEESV", "settings": "second of two PKC lines (Greek letter lost), 1 µM inhibitor, read-out: Residual activity, %", "outline": "as §1"}, "RIPK2": {"target": "RIPK2 (Homo sapiens, UniProt O43353)", "sequence (O43353 whole entry)": "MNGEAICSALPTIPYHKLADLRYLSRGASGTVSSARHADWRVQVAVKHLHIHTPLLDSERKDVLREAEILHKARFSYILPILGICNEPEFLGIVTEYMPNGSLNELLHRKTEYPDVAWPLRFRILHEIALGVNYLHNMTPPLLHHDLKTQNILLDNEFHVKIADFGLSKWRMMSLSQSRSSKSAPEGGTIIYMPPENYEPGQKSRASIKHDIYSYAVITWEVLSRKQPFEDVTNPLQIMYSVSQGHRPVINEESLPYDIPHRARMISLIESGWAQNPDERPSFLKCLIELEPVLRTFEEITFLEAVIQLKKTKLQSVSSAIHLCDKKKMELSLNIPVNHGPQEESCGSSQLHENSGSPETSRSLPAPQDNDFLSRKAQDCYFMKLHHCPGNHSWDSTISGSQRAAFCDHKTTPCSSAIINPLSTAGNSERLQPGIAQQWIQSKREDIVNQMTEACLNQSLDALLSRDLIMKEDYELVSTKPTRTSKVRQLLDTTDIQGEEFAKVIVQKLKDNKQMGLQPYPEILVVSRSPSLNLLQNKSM", "settings": "RIPK2, 1 µM inhibitor; read-out: Residual activity, %", "outline": "as §1"}, "p38 MAPK": {"target": "p38 MAPK (Homo sapiens, UniProt Q15759)", "sequence (Q15759 whole entry)": "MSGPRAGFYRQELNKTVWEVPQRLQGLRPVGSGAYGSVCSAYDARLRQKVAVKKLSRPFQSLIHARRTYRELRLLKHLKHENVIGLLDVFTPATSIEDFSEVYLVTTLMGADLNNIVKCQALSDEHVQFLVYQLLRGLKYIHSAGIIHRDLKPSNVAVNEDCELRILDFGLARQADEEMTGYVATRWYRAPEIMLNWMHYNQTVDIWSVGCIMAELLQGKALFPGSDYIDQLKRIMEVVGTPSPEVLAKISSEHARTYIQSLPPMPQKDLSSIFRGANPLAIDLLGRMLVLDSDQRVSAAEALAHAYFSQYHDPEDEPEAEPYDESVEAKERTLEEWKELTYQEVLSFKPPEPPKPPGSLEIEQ", "settings": "second of four lines (Greek letter lost), 1 µM inhibitor, read-out: Residual activity, %", "outline": "as §1"}}, "note": "Square brackets hold non-standard residues; d marks the D form. Peptide text beside a SMILES is read from it. * marks the point of attachment. X3 = O=C(CCCCCNCc1nc2c(sc3cc(Br)cnc32)c(=O)[nH]1)*"}
{"smiles": "N=C(N)NCCC[C@@H](NC(=O)CCCCCNC(=O)Cn1cnc2c(I)c(I)c(I)c(I)c21)C(=O)N[C@H](CCCNC(=N)N)C(=O)N[C@H](CCCNC(=N)N)C(=O)N[C@H](CCCNC(=N)N)C(=O)N[C@H](CCCNC(=N)N)C(=O)N[C@H](CCCNC(=N)N)C(=O)N[C@H](CCCCN)C(N)=O", "note": "[ARC-3125, TIBI-CH2-C(=O)-Ahx-(D-Arg)6-D-Lys-NH2]", "values": [{"measurement": "remaining activity at 1 µM", "setting": "HIPK2", "result": "16 ± 2", "unit": "%"}, {"measurement": "remaining activity at 1 µM", "setting": "LKB1", "result": "49 ± 28", "unit": "%"}, {"measurement": "remaining activity at 1 µM", "setting": "Lck", "result": "226 ± 7", "unit": "%"}, {"measurement": "remaining activity at 1 µM", "setting": "MNK1", "result": "67 ± 4", "unit": "%"}, {"measurement": "remaining activity at 1 µM", "setting": "OSR1", "result": "73 ± 2", "unit": "%"}, {"measurement": "remaining activity at 1 µM", "setting": "PAK6", "result": "34 ± 11", "unit": "%"}, {"measurement": "remaining activity at 1 µM", "setting": "PKC", "result": "14 ± 1", "unit": "%"}, {"measurement": "remaining activity at 1 µM", "setting": "RIPK2", "result": "37 ± 6", "unit": "%"}, {"measurement": "remaining activity at 1 µM", "setting": "p38 MAPK", "result": "80 ± 6", "unit": "%"}]}
{"smiles": "N=C(N)NCCC[C@@H](NC(=O)CCCCCNCc1nc2c(sc3cc(Br)cnc32)c(=O)[nH]1)C(=O)N[C@H](CCCNC(=N)N)C(=O)N[C@H](CCCNC(=N)N)C(=O)N[C@H](CCCNC(=N)N)C(=O)N[C@H](CCCNC(=N)N)C(=O)N[C@H](CCCNC(=N)N)C(=O)N[C@H](CCCCN)C(N)=O", "note": "[ARC-3126, BPTP-Ahx-(D-Arg)6-D-Lys-NH2] (X3-[dR][dR][dR][dR][dR][dR][dK]-NH2)", "values": [{"measurement": "remaining activity at 1 µM", "setting": "HIPK2", "result": "75 ± 15", "unit": "%"}, {"measurement": "remaining activity at 1 µM", "setting": "LKB1", "result": "114 ± 11", "unit": "%"}, {"measurement": "remaining activity at 1 µM", "setting": "Lck", "result": "132 ± 28", "unit": "%"}, {"measurement": "remaining activity at 1 µM", "setting": "MNK1", "result": "89 ± 5", "unit": "%"}, {"measurement": "remaining activity at 1 µM", "setting": "OSR1", "result": "116 ± 12", "unit": "%"}, {"measurement": "remaining activity at 1 µM", "setting": "PAK6", "result": "103 ± 5", "unit": "%"}, {"measurement": "remaining activity at 1 µM", "setting": "PKC", "result": "92 ± 4", "unit": "%"}, {"measurement": "remaining activity at 1 µM", "setting": "RIPK2", "result": "99 ± 6", "unit": "%"}, {"measurement": "remaining activity at 1 µM", "setting": "p38 MAPK", "result": "94 ± 4", "unit": "%"}]}
{"smiles": "N=C(N)NCCC[C@@H](NC(=O)CNC(=O)[C@@H](CCCNC(=N)N)NC(=O)[C@@H](CCCNC(=N)N)NC(=O)CCCCCCCNCc1nc2c(sc3cc(Br)cnc32)c(=O)[nH]1)C(=O)N[C@H](CCCCN)C(N)=O", "note": "[Compound 1, BPTP-Aoc-(D-Arg)2-Gly-D-Arg-D-Lys-NH2]", "values": [{"measurement": "remaining activity at 1 µM", "setting": "HIPK2", "result": "103 ± 13", "unit": "%"}, {"measurement": "remaining activity at 1 µM", "setting": "LKB1", "result": "107 ± 1", "unit": "%"}, {"measurement": "remaining activity at 1 µM", "setting": "Lck", "result": "94 ± 18", "unit": "%"}, {"measurement": "remaining activity at 1 µM", "setting": "MNK1", "result": "102 ± 3", "unit": "%"}, {"measurement": "remaining activity at 1 µM", "setting": "OSR1", "result": "114 ± 7", "unit": "%"}, {"measurement": "remaining activity at 1 µM", "setting": "PAK6", "result": "119 ± 8", "unit": "%"}, {"measurement": "remaining activity at 1 µM", "setting": "PKC", "result": "95 ± 6", "unit": "%"}, {"measurement": "remaining activity at 1 µM", "setting": "RIPK2", "result": "62 ± 7", "unit": "%"}, {"measurement": "remaining activity at 1 µM", "setting": "p38 MAPK", "result": "108 ± 14", "unit": "%"}]}
{"smiles": "N=C(N)NCCC[C@@H](NC(=O)CNC(=O)[C@@H](CCCNC(=N)N)NC(=O)[C@@H](CCCNC(=N)N)NC(=O)CCCCCCCNCc1nc2c(sc3ccc(Br)cc32)c(=O)[nH]1)C(=O)N[C@H](CCCCN)C(N)=O", "note": "[Compound 2, BBTP-Aoc-(D-Arg)2-Gly-D-Arg-D-Lys-NH2]", "values": [{"measurement": "remaining activity at 1 µM", "setting": "HIPK2", "result": "48 ± 2", "unit": "%"}, {"measurement": "remaining activity at 1 µM", "setting": "LKB1", "result": "118 ± 4", "unit": "%"}, {"measurement": "remaining activity at 1 µM", "setting": "Lck", "result": "103 ± 18", "unit": "%"}, {"measurement": "remaining activity at 1 µM", "setting": "MNK1", "result": "66 ± 7", "unit": "%"}, {"measurement": "remaining activity at 1 µM", "setting": "OSR1", "result": "114 ± 4", "unit": "%"}, {"measurement": "remaining activity at 1 µM", "setting": "PAK6", "result": "110 ± 15", "unit": "%"}, {"measurement": "remaining activity at 1 µM", "setting": "PKC", "result": "118 ± 11", "unit": "%"}, {"measurement": "remaining activity at 1 µM", "setting": "RIPK2", "result": 72, "unit": "%"}, {"measurement": "remaining activity at 1 µM", "setting": "p38 MAPK", "result": "113 ± 4", "unit": "%"}]}
{"smiles": "N=C(N)NCCC[C@@H](NC(=O)CNC(=O)[C@@H](CCCNC(=N)N)NC(=O)[C@@H](CCCNC(=N)N)NC(=O)Cn1cc(CNCc2nc3c(sc4ccc(Br)cc43)c(=O)[nH]2)nn1)C(=O)N[C@H](CCCCN)C(N)=O", "note": "[Compound 3, BBTP-Amt-(D-Arg)2-Gly-D-Arg-D-Lys-NH2]", "values": [{"measurement": "remaining activity at 1 µM", "setting": "HIPK2", "result": "50 ± 7", "unit": "%"}, {"measurement": "remaining activity at 1 µM", "setting": "LKB1", "result": "115 ± 13", "unit": "%"}, {"measurement": "remaining activity at 1 µM", "setting": "Lck", "result": "78 ± 6", "unit": "%"}, {"measurement": "remaining activity at 1 µM", "setting": "MNK1", "result": "89 ± 8", "unit": "%"}, {"measurement": "remaining activity at 1 µM", "setting": "OSR1", "result": "107 ± 14", "unit": "%"}, {"measurement": "remaining activity at 1 µM", "setting": "PAK6", "result": "86 ± 8", "unit": "%"}, {"measurement": "remaining activity at 1 µM", "setting": "PKC", "result": "89 ± 2", "unit": "%"}, {"measurement": "remaining activity at 1 µM", "setting": "RIPK2", "result": "71 ± 8", "unit": "%"}, {"measurement": "remaining activity at 1 µM", "setting": "p38 MAPK", "result": "100 ± 6", "unit": "%"}]}
